According to article doi:10.1101/2021.07.15.452465:

Key:
[1] = biological target: A. nidulans CCAAT-binding complex, conserved core domains of HapB, HapC and HapE (HapB^231-293, HapC^42-132, HapE^47-164) (Aspergillus nidulans); assay: SEC
[2] = biological target: A. nidulans CCAAT-binding complex, conserved core domains of HapB, HapC and HapE (HapB^231-293, HapC^42-132, HapE^47-164) (Aspergillus nidulans); assay: crystal structure
[3] = biological target: A. nidulans HapX^36-133M carrying C92K and C129S point mutations (Aspergillus nidulans); assay: crystal structure
[4] = biological target: A. nidulans CCAAT-binding complex, conserved core domains of HapB, HapC and HapE (HapB^231-293, HapC^42-132, HapE^47-164) (Aspergillus nidulans); assay: SPR

| Substance | stoichiometry N [1] | stoichiometry N (HapX subunits per CBC) [2] | stoichiometry N [3] | fold increase of binding against HapX^36-133 [4] |
| --- | --- | --- | --- | --- |
| A. nidulans HapX^36-133M carrying C92K and C129S point mutations (domain or fragment) | 2 HapX per CBC | 2 | 2 | – |
| A. nidulans HapX^36-141 (domain or fragment) | – | – | – | < 3.6 fold |
